B1: Isoform 2 of C-Jun-amino-terminal kinase-interacting protein 4 (Homo sapiens), O60271-2 (parent)
chain: MELEDGVVYQEEPGGSGAVMSERVSGLAGSIYREFERLIGRYDEEVVKELMPLVVAVLENLDSVFAQDQEHQVELELLRDDNEQLITQYEREKALRKHAEEKFIEFEDSQEQEKKDLQTRVESLESQTRQLELKAKNYADQISRLEEREAELKKEYNALHQRHTEMIHNYMEHLERTKLHQLSGSDQLESTAHSRIRKERPISLGIFPLPAGDGLLTPDAQKGGETPGSEQWKFQELSQPRSHTSLKDELSDVSQGGSKATTPASTANSDVATIPTDTPLKEENEGFVKVTDAPNKSEISKHIEVQVAQETRNVSTGSAENEEKSEVQAIIESTPELDMDKDLSGYKGSSTPTKGIENKAFDRNTESLFEELSSAGSGLIGDVDEGADLLGMGREVENLILENTQLLETKNALNIVKNDLIAKVDELTCEKDVLQGELEAVKQAKLKLEEKNRELEEELRKARAEAEDARQKAKDDDDSDIPTAQRKRFTRVEMARVLMERNQYKERLMELQEAVRWTEMIRASRENPAMQEKKRSSIWQFVPTRFSRLFSSSSNTTKKPEPPVNLKYNAPTSHVTPSVKKRSSTLSQLPGDKSKAFDFLSEETEASLASRREQKREQYRQVKAHVQKEDGRVQAFGWSLPQKYKQVTNGQGENKMKNLPVPVYLRPLDEKDTSMKLWCAVGVNLSGGKTRDGGSVVGASVFYKDVAGLDTEGSKQRSASQSSLDKLDQELKEQQKELKNQEELSSLVWICTSTHSATKVLIIDAVQPGNILDSFTVCNSHVLCIASVPGARETDYPAGEDLSESGQVDKASLCGSMTSNSSAETDSLLGGITVVGCSAEGVTGAATSPSTNGASPVMDKPPEMEAENSEVDENVPTAEEATEATEGNAGSAEDTVDISQTGVYTEHVFTDPLGVQIPEDLSPVYQSSNDSDAYKDQISVLPNEQDLVREEAQKMSSLLPTMWLGAQNGCLYVHSSVAQWRKCLHSIKLKDSILSIVHVKGIVLVALADGTLAIFHRGVDGQWDLSNYHLLDLGRPHHSIRCMTVVHDKVWCGYRNKIYVVQPKAMKIEKSFDAHPRKESQVRQLAWVGDGVWVSIRLDSTLRLYHAHTYQHLQDVDIEPYVSKMLGTGKLGFSFVRITALMVSCNRLWVGTGNGVIISIPLTETNKTSGVPGNRPGSVIRVYGDENSDKVTPGTFIPYCSMAHAQLCFHGHRDAVKFFVAVPGQVISPQSSSSGTDLTGDKAGPSAQEPGSQTPLKSMLVISGGEGYIDFRMGDEGGESELLGEDLPLEPSVTKAERSHLIVWQVMYGNE

Variants of B1 are the subject of one assay. As to conditions: with arf6_human ARF6, P62330.
Sequence of arf6_human ARF6, P62330 (P62330 whole entry): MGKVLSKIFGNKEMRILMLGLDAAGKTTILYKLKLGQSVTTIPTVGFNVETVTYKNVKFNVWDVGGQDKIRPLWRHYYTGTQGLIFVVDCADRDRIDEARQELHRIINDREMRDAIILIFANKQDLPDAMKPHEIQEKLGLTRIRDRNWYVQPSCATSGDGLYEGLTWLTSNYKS
Turning to D425A, the “effect of a mutation on the interaction” value is recorded as “decreasing interaction”.

A further assay covers variants of B1. As to conditions: with arf6_human ARF6, P62330. This is another data set of the same source.
Regarding I421A, the “effect of a mutation on the interaction” value was “decreasing interaction”.

Source of the values: IntAct's records for PubMed 19644450.
